From patent US20200207869A1 come the findings set out here.

The assay has as its target VWF in the plasma of the mice (endogenous murine VWF) (murine) (UniProt Q8CIZ8). Description: sandwich ELISA of mouse plasma, anti-FVII capture, anti-VWF detection, n=4 mice. Background: ELISA stands for enzyme-linked immunosorbent assay.

B1: FVII-KB13-bv (protein)
chain: AGGVAKASGGETRDMPWKPGPHRVFVTQEEAHGVLHRRRRANAFLEELRPGSLERECKEEQCSFEEAREIFKDAERTKLFWISYSDGDQCASSPCQNGGSCKDQLQSYICFCLPAFEGRNCETHKDDQLICVNENGGCEQYCSDHTGTKRSCRCHEGYSLLADGVSCTPTVEYPCGKIPILEKRNASKPQGRIVGGKVCPKGECPQVLLLVNGAQLCGGTLINTIWVVSAAHCFDKIKNWRNLIAVLGEHDLSEHDGDEQSRRVAQVIIPSTYVPGTTNHDIALLRLHQPVVLTDHVVPLCLPERTFSERTLAFVRFSLVSGWGQLLDRGATALELMVLNVPRLMTQDCLQQSRKVGDSPNITEYMFCAGYSDGSKDSCKGDSGGPHATHYRGTWYLTGIVSWGQGCATVGHFGVYTRVSQYIEWLQKLMRSEPRPGVLLRAPFPLTPRGVRLGGGSGGGSGGGSGGGSQVQLVQSGGGLVQAGDSLRLSCAASGRTFIRYAMAWFRQAPGKEREFVAAIPQSGGRSYYADSVKGRFTISRDNAKNTVYLQMNSLKPEDTAVYSCAATSTYYGRSAYSSHSGGYDYWGQGTQVTVSSGGGSGGGSGGGSGGGSQVQLVQSGGGLVQAGDSLRLSCAASGRTFIRYAMAWFRQAPGKEREFVAAIPQSGGRSYYADSVKGRFTISRDNAKNTVYLQMNSLKPEDTAVYSCAATSTYYGRSAYSSHSGGYDYWGQGTQVTVSS
Turning to B1, the OD450 nm turned out to be 0.684 OD450 nm.
